Test results taken from patent publication US20240092935A1.

Target: Asialo-BSM (desialylated bovine submaxillary mucin) (bovine)
Experiment: fluorescence binding assay on an Asialo-BSM-coated 96-well plate (0.5 µg/well), biotinylated VVA detected with Alexa Fluor 488 streptavidin, fit with GraphPad Prism

Substance: Vicia villosa agglutinin (VVA), biotinylated (from UniProt P56625 1-185)
- Kd: 53.3 nM
